Reference: US20180118816A1 (IGM BIOSCIENCES, published 2018)

B1: HIV02 IgG (HIV02G) (antibody, V domains shown)
VH: QVQLVQSGGQMKKPGESMRISCQASGYEFIDCTLNWVRLAPGRRPEWMGWLKPRGGAVNYARPLQGRVTMTRDVYSDTAFLELRSLTADDTAVYYCTRGKNCDYNWDFEHWGRGTPVTVSS
VL: EIVLTQSPGTLSLSPGETAIISCRTSQYGSLAWYQQRPGQAPRLVIYSGSTRAAGIPDRFSGSRWGPDYNLTIRNLESGDFGLYYCQQYEFFGQGTKVQVDI
notes: also called the IgG
B2: HIV02 IgM+J (HIV02M+J) (antibody)
heavy: QVQLVQSGGQMKKPGESMRISCQASGYEFIDCTLNWVRLAPGRRPEWMGWLKPRGGAVNYARPLQGRVTMTRDVYSDTAFLELRSLTADDTAVYYCTRGKNCDYNWDFEHWGRGTPVTVSSGSASAPTLFPLVSCENSPSDTSSVAVGCLAQDFLPDSITFSWKYKNNSDISSTRGFPSVLRGGKYAATSQVLLPSKDVMQGTDEHVVCKVQHPNGNKEKNVPLPVIAELPPKVSVFVPPRDGFFGNPRKSKLICQATGFSPRQIQVSWLREGKQVGSGVTTDQVQAEAKESGPTTYKVTSTLTIKESDWLSQSMFTCRVDHRGLTFQQNASSMCVPDQDTAIRVFAIPPSFASIFLTKSTKLTCLVTDLTTYDSVTISWTRQNGEAVKTHTNISESHPNATFSAVGEASICEDDWNSGERFTCTVTHTDLPSPLKQTISRPKGVALHRPDVYLLPPAREQLNLRESATITCLVTGFSPADVFVQWMQRGQPLSPEKYVTSAPMPEPQAPGRYFAHSILTVSEEEWNTGETYTCVVAHEALPNRVTERTVDKSTGKPTLYNVSLVMSDTAGTCY
light: EIVLTQSPGTLSLSPGETAIISCRTSQYGSLAWYQQRPGQAPRLVIYSGSTRAAGIPDRFSGSRWGPDYNLTIRNLESGDFGLYYCQQYEFFGQGTKVQVDIKRTVAAPSVFIFPPSDEQLKSGTASVVCLLNNFYPREAKVQWKVDNALQSGNSQESVTEQDSKDSTYSLSSTLTLSKADYEKHKVYACEVTHQGLSSPVTKSFNRGEC
chain: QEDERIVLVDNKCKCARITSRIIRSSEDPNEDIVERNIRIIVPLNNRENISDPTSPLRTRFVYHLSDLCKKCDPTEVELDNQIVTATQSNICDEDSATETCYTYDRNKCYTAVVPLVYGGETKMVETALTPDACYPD
notes: also called the IgM+J

Legend:
[1] = molecular target: T1, HIV gp120 antigen (strain HXB2, Immune Tech, cat #IT-001-0022p-PBS) (HIV, strain HXB2, UniProt P04578 33-511); assay: ELISA, gp120 coated at 1 µg/mL, anti-human kappa-HRP detection; value given to the IgG by the sense of the sentence, not by its word order
T1 construct: domain: gp120; Bought protein coated on ELISA plates; also called gp120 HBX2

[2] = molecular target: T1, HIV gp120 antigen (strain HXB2, Immune …); assay: ELISA, gp120 coated at 1 µg/mL
[3] = molecular target: T1, HIV gp120 antigen (strain HXB2, Immune …); assay: ELISA, interpolated EC10 values; gp120 coating 1.0 µg/mL end of the series
[4] = molecular target: T1, HIV gp120 antigen (strain HXB2, Immune …); assay: ELISA, interpolated EC10 values; gp120 coating 0.1 µg/mL end of the series
[5] = molecular target: T1, HIV gp120 antigen (strain HXB2, Immune …); assay: ELISA, interpolated EC10 values; gp120 coated at 0.1 µg/mL
[6] = molecular target: T1, HIV gp120 antigen (strain HXB2, Immune …); assay: ELISA, gp120 coated at 1 µg/mL, anti-human kappa-HRP detection; value given to the IgM+J by the sense of the sentence, not by its word order

Binder	EC50 [1] [µg/mL]	fold better binding than HIV02G, on a molar basis [2] [fold]	fold difference in EC50 against HIV02G, by weight [2] [fold]	fold binding relative to the IgG (HIV02G), on a weight basis (from EC10) [3] [fold]	fold binding relative to the IgG (HIV02G), on a weight basis (from EC10) [4] [fold]	fold better binding than the IgG (HIV02G), on a molar basis [5] [fold]	EC50 [6] [µg/mL]
B1	2.3	–	–	–	–	–	–
B2	–	42	7	5	20	120	0.32
